Here are results for 25 molecules from paper PMC10720262 (2023).

The target of this test is PfCSP full length (Plasmodium falciparum (isolate NF54), UniProt P19597). In words: ELISA AUC. Background: ELISA stands for enzyme-linked immunosorbent assay.

Numbering of substitutions follows the chain as printed.

Chain of PfCSP full length (P19597 20-375): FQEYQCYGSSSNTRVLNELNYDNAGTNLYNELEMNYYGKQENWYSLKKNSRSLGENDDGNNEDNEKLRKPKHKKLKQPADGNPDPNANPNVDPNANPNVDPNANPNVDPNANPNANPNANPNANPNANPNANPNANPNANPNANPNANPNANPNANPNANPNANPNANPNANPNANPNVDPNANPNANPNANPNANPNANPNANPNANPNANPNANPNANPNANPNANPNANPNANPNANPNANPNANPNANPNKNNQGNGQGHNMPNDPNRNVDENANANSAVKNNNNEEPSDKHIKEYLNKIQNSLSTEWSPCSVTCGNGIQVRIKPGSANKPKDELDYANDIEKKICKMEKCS

B1: CL-509930 (antibody, V domains shown)
VH: QVQLVESGGGVVQPGRSLRLSCAASGFTFSSYGMHWVRQAPGKGLEWVAIIWHDGSNKYYADSVKGRFTISRDNSKNTLYLQMNSLRAEDTAVYYCARDYSSFYFDYWGQGTLVTVSS
VL: not shown
modifications: peptides N-terminally acetylated and C-terminally amidated
As for B1, the binding score was 1.99.

B2: Ky315 (antibody, V domains shown)
VH: QVQLVESGGGVVQPGRSLRLSCAASGFTLSNYGVHWVRQAPGTGLEWVALIWYDGSNKFYADSVKGRFTISRDNSMDIVYLQMNNLRAEDTALYYCVRPGIAAAGSNYYAMDVWGQGTAVTVSS
VL: EIVMTQSPATLSMSPGERATLSCRASQSVGSDLAWFQQKPGQAPRLLIYGAFTRATGIPARFSGSGSGSEFTLTISSLQSEDFAVYYCQQYNRWWTFGQGTKVEMK
modifications: peptides N-terminally acetylated and C-terminally amidated
In turn, B2 displayed a binding score of 2.7.

B3: CL-513083 (antibody, V domains shown)
VH: QVQLVESGGGVVQPGRSLRLSCAASGFTFSNYGMHWVRQAPGRGLEWVAIIWYDGSNKYYEDSVKGRFTISRDNSKNTLYLQMNSLRAEDTAVYYCARAQWLDQRHYHYTMDVWGQGTTVTVSS
VL: not shown
modifications: peptides N-terminally acetylated and C-terminally amidated
B3 registered a binding score of 2.24.

B4: CL-437899 (antibody, V domains shown)
VH: QEQLVESGGGVVQPGRSLRLSCEVSGFTFSNHGLHWVRQAPGKGLEWVAIIWYDGSNKFYAESVKGRFTISRDNSKNRMYLEMNSLRVEDSAVYYCVRAYSRSSSDYKYGMDVWGQGTTVTVSS
VL: DIQMTQSPSTLSASVGDRVIITCRASQSISSWLAWYQQRPGKAPELLIYKASSLETGVPSRFSGSGSGTEFTLTISSLQPDDFATYFCQQYSSYWTFGQGTKVEIK
modifications: peptides N-terminally acetylated and C-terminally amidated
B4 had a binding score of 2.4.

B5: CL-462911 (antibody, V domains shown)
VH: QVHLVESGGGVVQPGRSLTLSCAASGFTFSSCGMHWVRQAPGKGLEWLAVIWYDGSNKYYADSVKGRFTISRDNSKNTLYLQMNSLRAEDTAVYYCARDGGYVRDYYYGMDVWGQGTTVTVSS
VL: not shown
modifications: peptides N-terminally acetylated and C-terminally amidated
Molecule B5 showed a binding score of 1.4.

B6: CL-511905 (antibody, V domains shown)
VH: QVQLVESGGGVVQPGRSLRLSCAASGFTFSGSGMHWVRQAPGRGLEWVAIIWYDGSHKYYVDSVQGRFIISRDNSKNTLYLEMNSLRVEDTAVYYCVRAYPSGSSNDKYGMDVWGQGTTVTVSS
VL: not shown
modifications: peptides N-terminally acetylated and C-terminally amidated
The molecule B6 registered a binding score of 2.61.

B7: CL-513094 (antibody, V domains shown)
VH: B6 VH with S85N
VL: not shown
modifications: peptides N-terminally acetylated and C-terminally amidated
The molecule B7 displayed a binding score of 2.14.

B8: CL-512871 (antibody, V domains shown)
VH: QVLLVESGGGVVQPGRSLRLSCAASGFTFSNYGMHWVRQAPGKGLEWVALIRYDGINKFYADSVKGRFTISRDNSENTLYMQINSLRAEDTAMYYCAKAYNTSSDYYYGMDVWGQGTTVTVSS
VL: DIQMTQSPSTLSASVGDRVTITCRASQSISTWLAWYQQKPGKAPKLLIYKASRLESGVPSRFSGSGSGTEFTLTISSLQPDDLATYYCQQFNSYWTFGQGTKVEIR
modifications: peptides N-terminally acetylated and C-terminally amidated
Take B8: the binding score is 2.21.

B9: CL-449007 (antibody, V domains shown)
VH: QVQVVESGGGVVQPGRSLRLSCAASGFTFSNYGMHWVRQAPGKGLEWVAIIWYDGSHKFYANSVKGRFTISRDNSKNTLFLQMNSLRAEDTAVYYCARVGNGNSDWTDAFDIWGQGTMVTVSS
VL: B8 VL with S30N, T31S, R53S, L83F, F91Y, S93T, R106K
modifications: peptides N-terminally acetylated and C-terminally amidated
B9 yielded a binding score of 2.4.

B10: CL-444469 (antibody, V domains shown)
VH: QVQLVESGGGVVQPGRSLRVSCEVSGLTFSNYGMHWVRQAPGKRLEWVAIIWYDGSNKYYADSVKGRFTISRDNSKNTLYLQMNSLRAEDTAVYYCARSYGSGSRGDYYGMDVWGQGTTVTVSS
VL: B4 VL with I20T, Y36F, R39K, E45K, T56S, F87Y, S92Y
modifications: peptides N-terminally acetylated and C-terminally amidated
The molecule B10 returned a binding score of 2.4.

B11: CL-510373 (antibody, V domains shown)
VH: QVQLVESGGGVVQPGRSLKLSCAASGFTFSSYGMHWVRQAPGRGLEWVSIIWYDGSNKFYSDSVQGRFTISRDDSKNTLYLQMNSLRAEDTAMYYCAMVANYTISSGAFDIWGHGTMVTVSS
VL: B4 VL with I20T, S31N, R39K, P40S, E45K, T56S, S92K, S93T
modifications: peptides N-terminally acetylated and C-terminally amidated
In turn, B11 showed a binding score of 2.37.

B12: CL-460406 (antibody, V domains shown)
VH: QIQLVESGGGVVQPGRSLRLSCAASGFTFSNSGMHWIRQAPGKGLEWVTIIWYDGSNKYYADSVKGRFTISRDNSKNTLYLQMNSLRAEDTAIYYCARAYSSSSDDYYGMDVWGQGTTVTVSS
VL: B8 VL with T31S, R53S, E70D, L83F, N92Y, S93N, R106T
modifications: peptides N-terminally acetylated and C-terminally amidated
For the molecule B12, the binding score is 2.3.

B13: CL-532151 (antibody, V domains shown)
VH: QVQLVESGGGVVQPGGSLRLSCAASGFTFSGSGMHWVRHAPGKGLEWVAIIWYDGSNKFYADSVKGRFTISRDNSRNTLYLQMNSLRAEDTAVYYCARAYVSGNYGDKYGMDVWGQGTTVTVSS
VL: B4 VL with I20T, S31N, Y36F, R39K, E45K, T56S, S76N, S92N, S93Y
modifications: peptides N-terminally acetylated and C-terminally amidated
On to B13, for which the binding score came to 2.53.

B14: CL-510453 (antibody, V domains shown)
VH: QVQLVESGGGVVQPGRSLRLSCAASGFTFSSYGMHWVRQAPDKGLEWVAIIWYDGSKKYYADSVKGRFTVSRDNSKNTLYLQMNSLRAEDTAVFYCARSFDYESGGFYSFDYWGQGTLVSVSS
VL: B8 VL with T31S, K50R, R53S, E55A, L83F, F91Y, I105F, R106K
modifications: peptides N-terminally acetylated and C-terminally amidated
On to B14, for which the binding score was 2.07.

B15: CL-510020 (antibody, V domains shown)
VH: QVQLVESGGGVVQPGRSLRLSCAASGFTFSSFGMYWVRQAPGKGLEWVALIWYDGSNQYYADSVKGRFTISRDNSKNTLYLQMNSLRAEDTAVYYCARAGYFYGSGSPLDYWGQGTLVTVPS
VL: B4 VL with R18G, I20T, R39K, E45K, K50M, T56S, F87Y, S92Y, S93N
modifications: peptides N-terminally acetylated and C-terminally amidated
Regarding B15, the binding score was determined as 2.45.

B16: CL-514174 (antibody, V domains shown)
VH: B13 VH with G16R, A23V, H39Q, A40S, K65Q, R76K, A88V, A92G, V101L
VL: B4 VL with I20T, Y36F, R39K, E45K, T56S, S76N, S92N, S93Y
modifications: peptides N-terminally acetylated and C-terminally amidated
Consider B16, for which the binding score was determined as 2.12.

B17: CL-510418 (antibody, V domains shown)
VH: QVQLVESGGGVVQPGQSLRLSCEASGFTFSNYGMHWVRQAPVKGLEWVAIIWFDGSYKYYADSVKGRFTVSRDNSKNTLYLQMDSLRAEDTAVYYCARARKGQRSDYYGSETSYTFDNWGQGTLVTVSS
VL: B8 VL with S30N, T31S, L46F, R53I, V58I, L83F, F91Y, R106K
modifications: peptides N-terminally acetylated and C-terminally amidated
Molecule B17 gave a binding score of 2.46.

B18: CL-444691 (antibody, V domains shown)
VH: QVQLVESGGGVVQPGRSLRLSCAASGFTFSNYGMHWVRQAPGKGLEWVAVIWYDGSNKFYADSVKGRFTISRDNSKNTLYLQMNSLRAEDTAVYYCARDGGYNKNSGSYGWFDPWGQGTLVTVSS
VL: B8 VL with I29V, R53S, L83F, F91Y, W95F, K102R, V103L, R106K
modifications: peptides N-terminally acetylated and C-terminally amidated
In the case of B18, the binding score stood at 2.3.

B19: CL-449869 (antibody, V domains shown)
VH: QVQLVESGGGAVQPGRSLRLSCAASGFTFSYNGMHWVRQAPGKGLEWVAIIWYDGSNKFYADSVKGRFTISRDNSKDTLYLEMNSLRAEDTAIYYCARAWNYDDKKYSMDVWGQGTTVTVSS
VL: B8 VL with T31S, R53S, L83F, F91Y, S93Y, Y94F
modifications: peptides N-terminally acetylated and C-terminally amidated
In turn, B19 came in with a binding score of 2.2.

B20: Ky15.2 (antibody, V domains shown)
VH: QVLLVESGGGVVQPGTSLRLSCVASGFSFSTYGMHWVRQSPGKGLEWVAIIWYDGGNKFYADSVQGRFTVSRDNSKNTLYLQMNSLRAEDTAVYYCAKAYRTSLDKKYGMDVWGQGTTVTVSS
VL: B4 VL with I20T, S30A, R39K, E45K, T56S, Q79H, Y91F, S92T
modifications: peptides N-terminally acetylated and C-terminally amidated
Molecule B20 showed a binding score of 2.4.

B21: CL-438096 (antibody, V domains shown)
VH: QVVLVESGGGVVQPGRSLRLSCEASGFIFSSRGMHWVRQTPGKGLEWVAIIWYDGSNKFYADSVKGRFTISRDNSKNTLYLQMNSLRAEDTAVYYCARSYRTSLDKKYGMDVWGQGTTVTVSS
VL: B4 VL with I20T, R39K, E45K, T56S, Q79H, S92N
modifications: peptides N-terminally acetylated and C-terminally amidated
On to B21, for which the binding score amounted to 2.6.

B22: CL-513809 (antibody, V domains shown)
VH: QVQLVESGGGVVQPGRSLRLSCAASGFIFSNYGMYWVRQTPDKGLEWVALIWYDGNNKFYSDSVKGRFTVSRDNSKNTLYLQMNSLRDEDTALYYCARAGYFYGSGSSLDKWGQGTLVTVSS
VL: B8 VL with T20S, T31I, R53S, L83F, F91Y, R106K
modifications: peptides N-terminally acetylated and C-terminally amidated
On to B22, for which the binding score is 2.34.

B23: CL-508731 (antibody, V domains shown)
VH: QVQLVESGGGVVQPGRSLRLSCVASGFTFSNNGMHWVRQAPGKGLEWVAIIWHDGSNKFYAESVRGRFTISRDNSNNTLYLQMNSLRAEDTAVYYCARDRMFGSGSWNYFDPWGQGTLVTVSS
VL: EIVLTQSPATLSLSPGERATLSCRASQSISTYLAWYQQKPGQAPRLLIYDASNRATGIPARFSGSGSGTDFTLTISSLEPEDFAVYYCQQRSYWWTFGQGTKVEIK
modifications: peptides N-terminally acetylated and C-terminally amidated
The molecule B23 came in with a binding score of 2.31.

B24: CL-509993 (antibody, V domains shown)
VH: B23 VH with H53Y, F59Y, E62D, R65K, S106T
VL: B23 VL with I29V, S30T, Y93N
modifications: peptides N-terminally acetylated and C-terminally amidated
Regarding B24, the binding score came out at 2.15.

B25: Ky224 (antibody, V domains shown)
VH: QVQLVESGGGVVQPGRSLRLSCAASGFTFSVYGMHWVRQAPGKGLEWVAVIWYDGSNKIYADSVKGRFTISRDNSKNTLYLQMDSLSAADTAVYYCAKIGSSSFDYWGQGTLVIVSS
VL: DIVMTQTPLSSPVTLGQPASISCRSSQSLVHSNGITYLSWLQQRPGQPPRLLLYEISNRFSGVPDRFSGSGTGTDFTLKISRVEAEDVGVYYCMQTTQFPITFGQGTRLEIK
modifications: peptides N-terminally acetylated and C-terminally amidated
Consider B25, for which the binding score stood at 2.2.
